Experiment [1] concerns the target fluorescein-labelled single cysteine mutant of arrestin-2 (arrestin-2-S234C on cysteine-less background) (bovine) (UniProt P17870). Put plainly: FRET or BRET. A general note: In BRET a luciferase serves as donor, and the signal depends on an acceptor being close.
Experiment [2] addresses fluorescein-labelled single cysteine mutant of arrestin-3 (arrestin-3-L101C on cysteine-less background) (bovine) (UniProt P32120). In words: FRET or BRET.

This passage reports Kd results from paper PMC3227541.

UniProt P32120, sequence (P32120 whole entry L101C, stated change not applied): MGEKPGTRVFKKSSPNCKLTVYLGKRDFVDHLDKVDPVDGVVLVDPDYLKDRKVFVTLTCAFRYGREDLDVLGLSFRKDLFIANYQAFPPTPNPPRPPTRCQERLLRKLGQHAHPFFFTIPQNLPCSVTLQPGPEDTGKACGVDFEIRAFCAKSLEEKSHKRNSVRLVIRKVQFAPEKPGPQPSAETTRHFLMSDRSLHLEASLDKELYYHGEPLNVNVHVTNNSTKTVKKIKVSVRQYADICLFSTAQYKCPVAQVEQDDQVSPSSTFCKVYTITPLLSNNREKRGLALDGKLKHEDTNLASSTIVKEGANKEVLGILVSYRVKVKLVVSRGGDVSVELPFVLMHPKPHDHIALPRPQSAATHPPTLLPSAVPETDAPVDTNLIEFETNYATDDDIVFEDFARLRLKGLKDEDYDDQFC
UniProt P17870, sequence (P17870 whole entry S234C, stated change not applied): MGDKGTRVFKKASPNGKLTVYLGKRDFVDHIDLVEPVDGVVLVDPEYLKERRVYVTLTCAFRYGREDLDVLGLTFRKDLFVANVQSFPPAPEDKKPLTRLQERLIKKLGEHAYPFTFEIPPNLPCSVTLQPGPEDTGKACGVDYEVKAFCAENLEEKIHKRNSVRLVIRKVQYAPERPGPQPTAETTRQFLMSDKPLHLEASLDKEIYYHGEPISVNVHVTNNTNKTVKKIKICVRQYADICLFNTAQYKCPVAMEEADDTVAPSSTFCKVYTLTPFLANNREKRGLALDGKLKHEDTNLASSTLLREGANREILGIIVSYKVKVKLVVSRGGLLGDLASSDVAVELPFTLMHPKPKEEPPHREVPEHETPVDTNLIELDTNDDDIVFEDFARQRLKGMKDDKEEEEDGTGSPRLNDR

Usually Kd stands for a measure of binding affinity in units of concentration. Read a low Kd as a tighter complex. Turning to “Alexa-568-labeled JNK3α2-His (from UniProt P53779 1-464) (enzyme)”, the Kd in experiment [1] is 6.1 µM; in experiment [2], 4.4 µM.
